The values that follow come from patent US20150125397A1, “DUAL SPECIFIC BINDING PROTEINS DIRECTED AGAINST IMMUNE CELL RECEPTORS AND AUTOANTIGENS” (ABBVIE INC., priority 2013, published 2015).

Entries after “also recorded” stand apart in the source; their conditions may differ.

What all share (type): cell-based, mouse
The test system of assay [1] is Dnase2−/− Ifnar1−/− DKO B cells. In words: 3H-thymidine incorporation of B220-purified B cells, DKO. Particulars: 24 hours, FIG. 10C. An excerpt:
(§1) Mice: RF and Tlr-9^−/− mice have been described previously (Uccellini et al. (2008) J. Immunol. 181:5875-5884), The DNase II-deficient mice on a C57BL/6 background were kindly provided by Dr. S, Nagata and obtained from the RIKEN Institute. […] and Unc93B1-deficient mice were obtained from Jackson Lab. DnaseII^−/− Ifnar1^−/− (Het), DnaseII^−/− Ifnar1−/− (DKO), and DnaseII^−/− Unc93b1^−/− (TKO), were bred at UMMS. All mice were maintained at the Department of Animal Medicine of the University of Massachusetts Medical School in accordance with the regulations of the American Association for the Accreditation of Laboratory Animal Care.
(§2) Proliferation of B220+ B cells: B cells were purified by magnetic bead separation using CD45R/B220-conjugated magnetic particles (BD Biosciences, San Jose, Calif., USA) and stimulated as described previously (Nundel et al. (2013) J. Leukoc. Biol. 94:865-875) with 15 μg/ml goat anti-mouse IgM F(ab′)2 (Jackson ImmunoResearch), ODN1826 (CpG; Idera Pharmaceuticals), anti-DNA-mAb (Leadbetter et al. (2002) Nature 416:603-607), or DVD-Ig proteins (1 μg/ml). B cell proliferation was assessed by ^3H-thymidine (Amersham Biosciences, Piscataway, N.J., USA) incorporation at 24 hours post-stimulation. For long-term proliferation assays, B220-purified B cells were labeled with a final concentration of 2.5 μM CFSE (Life Technologies) in PBS for 2 minutes. […]

The next assay deals with RF B cells. In words: Proliferation of B220+ B cells, RF (AM14). The procedure:
(§3) Proliferation of B220+ B cells: B cells were purified by magnetic bead separation using CD45R/B220-conjugated magnetic particles (BD Biosciences, San Jose, Calif., USA) and stimulated as described previously (Nundel et al. (2013) J. Leukoc. Biol. 94:865-875) with 15 μg/ml goat anti-mouse IgM F(ab′)2 (Jackson ImmunoResearch), ODN1826 (CpG; Idera Pharmaceuticals), anti-DNA-mAb (Leadbetter et al. (2002) Nature 416:603-607), or DVD-Ig proteins (1 μg/ml). B cell proliferation was assessed by ^3H-thymidine (Amersham Biosciences, Piscataway, N.J., USA) incorporation at 24 hours post-stimulation. For long-term proliferation assays, B220-purified B cells were labeled with a final concentration of 2.5 μM CFSE (Life Technologies) in PBS for 2 minutes. The cells were then washed and cultured for 72 hours in the presence of BLyS (Human Genome Sciences).
(§4) FACS for B cells: Multicolor flow cytometry analysis was carried out using a BD LSR II with DIVA software (BD Biosciences). Analysis was conducted with FlowJo software (Tree Star, Ashland, Oreg., USA) Immature and mature B cell ratios were determined using Pacific Blue-B220 and APC-AA4.1 (eBioscience). Dead cells and debris were excluded by forward- and side-scatter. Proliferation was assessed by CFSE dilution. Cell death was ascertained using the DNA stain TO-PRO-3 (Life Technologies) at a final concentration of 20 nM.

Assay [2] has as its system RF Tlr9−/− or BALB/c Tlr9−/− B cells. In words: Proliferation of B220+ B cells, Tlr9-/-. Particulars: 3H-thymidine 24 hours, CFSE 72 hours; FIG. 9. The procedure:
as §3, §4

The test system of assay [3] is Dnase2−/− Ifnar1−/− Unc93b1−/− TKO B cells. In words: 3H-thymidine incorporation of B220-purified B cells, TKO. As to conditions: 24 hours, FIG. 10C.
From the text: as §1, §2

Another assay relates to BALB/c B cells. In words: Proliferation of B220+ B cells, non-Tg BALB/c. Particulars: 3H-thymidine 24 hours, CFSE 72 hours; FIG. 8D, 9. The procedure: as §3, §4
Assay [4] relates to wild type (WT) primary B cells. In words: CFSE dilution / TO-PRO-3 FACS of wild type B cells (Example 4). As to conditions: 72 hours, FIG. 4. The procedure:
(§5) Primary murine B cells were purified by positive selection as described above. For cultures >48 hours old, proliferation was quantified by carboxyfluorescein diacetate, succinimidyl ester (CFSE) dilution and cell death by TO-PRO-3 binding. To label the cells with CFSE, the cells were first washed 2 times with PBS. Next, the stock of CFSE was diluted to 10 μM in PBS and the cells were brought to 1×10^7 cells/ml. The cells were mixed at a 1:1 ratio with 10 μM CFSE and mixed gently for 2 minutes. The CFSE labeling reaction was stopped by adding heat inactivated fetal calf serum equal in volume to the starting volume for the cell suspension. The cells were washed two times with media and resuspended to 1-4×10^6 cells/ml and were incubated with 0.5 μg/ml DVD-Ig proteins (DVD3759 and DVD3754) or antibodies, with or with out 0.05 μg/ml Blys. Proliferation was measured by fluorophore dilution at 60-72 hours by flow cytometry. […]
To determine if IRAK4 kinase activity is required for activation and/or death induced TLR9 via DVD3759, either wild type (WT), IRAK2 knock out (IRAK2KO) or IRAK 4 knock-in (IRAK4 KI) primary B cells were purified and tested in a method similar to Example 2.7. […] After 72 hours, cells were stained with 500 nM of the cell permeable DNA stain TOP-RO-3 and analyzed by FACS. Cell division was determined by dilution of CFSE and dead cells were identified by staining with TOP-RO-3.

The subject of the next assay is Primary murine B cells. In words: CFSE dilution / Sytox Blue FACS of primary murine B cells. Particulars: 72 hours, FIG. 3. The procedure:
as §5, with “The cells were washed two times with media and resuspended to 1-4×10^6 cells/ml and were incubated with 0.5 μg/ml DVD-Ig proteins (DVD3759 and DVD3754) or antibodies, with or with out 0.05 μg/ml Blys.” left out
Primary murine B cells were labeled and prepared as in Example 2.7 and stimulated with either media alone, […] of TLR9 ligand CpG oligodeoxynucleotide (ODN) 1826, […] of the mouse anti-chromatin autoantibody PL2-3 or […] DVD3759 in the presence or absence of […] of the B cell survival factor BLyS. After 72 hours, cells were stained with 1 μM of the cell permeable DNA stain Sytox Blue and analyzed by fluorescence activated cell sorting (FACS). Cell division was determined by dilution of CFSE and dead cells were identified by staining with Sytox Blue.

B1: DVD3754: DVD-Ig: VD1 DNA(PA4), SL linker, VD2 mIgM (B7.6); heavy SEQ ID NO 54, light 55 (antibody)
heavy: EVQLVESGGGLVKPGGSLKLSCVASGFTFSTYAMSWVRQTPTKRLEWVATISRGGVSTYYPDTVKGRFTISRDNAKNTLYLQMSSLRSEDTAMYYCARPPTIVTTWFAYWGQGTLVTVSSASTKGPQVQLKESGPGLVKPSLTLSLTCTVSGFSLNGYGVIWVRQPPGKGLEWMGVIWGNGNTNYNSTLKSRLSISRDTSKSQVFLKMNNLQTEDTAMYFCARSENYYSSPGYFAYWGQGTLVTVSS
light: DVVMTQTPLSLPVSLGDQASISCRSSQSLVHSNGNTYLHWYLQKPGQSPKLLIYKVSNRFSGVPDRFSGSGSGTDFTLKISRVEAEDLGAYFCSQSTHVPYTFGGPTRLEIKRTVAAPSVFIFPPNTVMTQSPTSMFISVGDRVTMNCKASQNVGSDVDWYQQKTGQSPKLLISGTSNRYTGVPDRFTGSGSGTDFTLTISNMQAEDLAVYYCLQYNYNPTFGAGTKLELKR
Consider B1, for which the “response of DKO B cells” value in assay [1] was “failed to respond”. In addition, the “level of activation compared with anti-DNA mAb” value in the assay on RF B cells (FIG. 9A,B) was “comparable”. In addition, in the assay on RF B cells (Tlr9+/+, 3H-thymidine 24 hours, CFSE 72 hours, FIG. 9), the “activation / proliferation of RF B cells” value is “induced both RF and non-Tg BALB/c B cells”. Moreover, the “proliferation of Tlr9−/− B cells” value in assay [2] is on record as “not RF Tlr9^−/− or BALB/c Tlr9^−/− B cells”. In addition, the “response of TKO B cells” value in assay [3] is reported as “failed to respond”. The “activation / proliferation of non-Tg BALB/c B cells” value with BALB/c B cells was “stimulated BALB/c B cells more strongly than the rest; also recorded: induced both RF and non-Tg BALB/c B cells”.

B2: DVD3759: DVD-Ig: VD1 mIgM (B7.6), SL linker, VD2 DNA(PA4); heavy SEQ ID NO 64, light 65 (antibody)
heavy: QVQLKESGPGLVKPSLTLSLTCTVSGFSLNGYGVIWVRQPPGKGLEWMGVIWGNGNTNYNSTLKSRLSISRDTSKSQVFLKMNNLQTEDTAMYFCARSENYYSSPGYFAYWGQGTLVTVSSASTKGPEVQLVESGGGLVKPGGSLKLSCVASGFTFSTYAMSWVRQTPTKRLEWVATISRGGVSTYYPDTVKGRFTISRDNAKNTLYLQMSSLRSEDTAMYYCARPPTIVTTWFAYWGQGTLVTVSS
light: NTVMTQSPTSMFISVGDRVTMNCKASQNVGSDVDWYQQKTGQSPKLLISGTSNRYTGVPDRFTGSGSGTDFTLTISNMQAEDLAVYYCLQYNYNPTFGAGTKLELKRTVAAPSVFIFPPDVVMTQTPLSLPVSLGDQASISCRSSQSLVHSNGNTYLHWYLQKPGQSPKLLIYKVSNRFSGVPDRFSGSGSGTDFTLKISRVEAEDLGAYFCSQSTHVPYTFGGPTRLEIKR
Turning to B2, the “effect of addition of BLyS on cell death” value (in assay [4] (0.05 μg/ml BLyS); with Primary murine B cells (0.05 mg/ml BLyS)) was “could be rescued” in each case. In assay [4] (0.5 μg/ml), the “cell division (CFSE dilution) and cell death (TO-PRO-3)” value was “induced several rounds of division followed by post-proliferative cell death”. The “cell division (CFSE dilution) and cell death (Sytox Blue)” value with Primary murine B cells (absence of BLyS) is recorded as “induced several rounds of division followed by post-proliferative cell death”.
